Results on 3 molecules are retold here after patent US20210292422A1 (SURROZEN, published 2021).

One test addresses T1, LRP6e3e4 (UniProt O75581 631-1246).
T1 construct: domain: e3e4; also called LRP6 E3E4 domain
T1 sequence (looked up): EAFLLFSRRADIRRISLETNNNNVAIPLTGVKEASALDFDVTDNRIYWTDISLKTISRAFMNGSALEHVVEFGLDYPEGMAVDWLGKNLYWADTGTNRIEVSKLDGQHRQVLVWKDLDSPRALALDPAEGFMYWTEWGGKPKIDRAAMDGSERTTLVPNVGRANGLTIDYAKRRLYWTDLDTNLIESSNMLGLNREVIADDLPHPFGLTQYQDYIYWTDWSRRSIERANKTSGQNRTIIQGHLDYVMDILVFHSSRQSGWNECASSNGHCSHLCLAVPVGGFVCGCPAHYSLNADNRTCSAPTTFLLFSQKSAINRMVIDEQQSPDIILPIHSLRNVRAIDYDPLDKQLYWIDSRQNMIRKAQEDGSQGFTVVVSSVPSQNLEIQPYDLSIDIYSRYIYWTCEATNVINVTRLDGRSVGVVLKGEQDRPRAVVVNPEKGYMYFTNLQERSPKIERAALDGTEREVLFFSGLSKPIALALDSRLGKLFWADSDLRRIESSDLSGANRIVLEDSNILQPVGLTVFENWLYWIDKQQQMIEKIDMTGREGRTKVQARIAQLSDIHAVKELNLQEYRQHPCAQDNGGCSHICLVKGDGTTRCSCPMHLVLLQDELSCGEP
Put plainly: column 'Specificity (Clone name)' of the component table; method not given there.

The target in a further test is T2, LRP6e1e2 (UniProt O75581 20-630).
T2 construct: domain: e1e2; also called LRP6 E1E2 domains
T2 sequence (looked up): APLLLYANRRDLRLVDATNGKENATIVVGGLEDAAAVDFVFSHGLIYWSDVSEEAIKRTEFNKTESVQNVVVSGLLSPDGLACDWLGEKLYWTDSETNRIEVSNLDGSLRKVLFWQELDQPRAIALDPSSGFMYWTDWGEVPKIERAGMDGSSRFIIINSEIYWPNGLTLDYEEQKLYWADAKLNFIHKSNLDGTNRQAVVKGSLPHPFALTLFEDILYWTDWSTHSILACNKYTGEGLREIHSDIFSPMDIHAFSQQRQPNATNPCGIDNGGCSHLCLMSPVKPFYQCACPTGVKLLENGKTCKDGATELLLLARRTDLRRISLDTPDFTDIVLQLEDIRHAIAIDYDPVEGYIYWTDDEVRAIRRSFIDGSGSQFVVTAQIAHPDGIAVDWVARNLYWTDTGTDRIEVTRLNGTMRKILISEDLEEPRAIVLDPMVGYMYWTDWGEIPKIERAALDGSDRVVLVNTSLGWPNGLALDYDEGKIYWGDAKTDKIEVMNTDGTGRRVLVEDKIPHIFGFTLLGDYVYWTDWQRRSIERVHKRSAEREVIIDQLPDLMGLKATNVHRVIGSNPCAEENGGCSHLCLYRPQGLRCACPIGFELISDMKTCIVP
The description is as above.

Another test addresses Frizzled 7 (Fzd7) (UniProt O75084 44-163). Description: BLI (Octet), FIG. 15A.

B1: L2: antiLRP6E3E4 (G211) scFv (scFv)
scFv: EVQLVESGGGLVQPGGSLRLSCAASGFTFTSYYISWVRQAPGKGLEWVAEISPYSGSTYYADSVKGRFTISADTSKNTAYLQMNSLRAEDTAVYYCALRARPPIRLHPRGSVMDYWGQGTLVTVSSGSAASGSSGGSSSGADIQMTQSPSSLSASVGDRVTITCRASQDVSTAVAWYQQKPGKAPKLLIYSASFLYSGVPSRFSGSGSGTDFTLTISSLQPEDFATYYCQQSYTTPPTFGQGTKVEIK
notes: also called YW211.31.57
As for B1, in the test with LRP6e3e4, the binding result is listed as “binds”.

B2: L1: antiLRP6E1E2 (1115.3) scFv (scFv)
scFv: DVKLVESGGGLVKLGGSLRLSCAASGFSFSTSYMSWVRQTPEKRLELVAAINLNGGSTYYSDTVKGRFTISRDNAKNTLYLQMSSLKSEDTAFYYCASELAGYGTPFAYWGQGTLVTVSAGSAASGSSGGSSSGADIVLTQSPATLSVTPGDSVSLSCKASQSISYNLHWYQQKSHESPRLLIKYTSQSISGIPSRFSGSGSGTDFTLTINNVETEDFGMYFCQQSNSWPLTFGAGTKLEVK
Regarding B2, the binding result in the test with LRP6e1e2 is on record as “binds”.

B3: F2 (R2H1) (scFv)
scFv: EVQLVESGGGLVQPGGSLRLSCAASGFNISSSYIHWVRQAPGKGLEWVAYIYSSYGSTYYADSVKGRFTISADTSKNTAYLQMNSLRAEDTAVYYCARASWYALDYWGQGTLVTVSSGSAASGSSGGSSSGADIQMTQSPSSLSASVGDRVTITCRASQSVSSAVAWYQQKPGKAPKLLIYSASSLYSGVPSRFSGSRSGTDFTLTISSLQPEDFATYYCQQYWYGVAPITFGQGTKVEIK
notes: also called antiFZD1,2,7
Take B3: the binding result with Frizzled 7 (Fzd7) is recorded as “binds”.
